Results published in patent US20160272683A1 (Novo Nordisk, published 2016).
Values belong to the binder of their own block, whether it stands above or below them. Numbered stars: 1 amine (or outer) side, 2 acyl side, 3 side chain; on linkers, the order of the positions; unused ones are H or OH. * marks the point of attachment. C20 diacid = O=C(O)CCCCCCCCCCCCCCCCCCC(=O)*; γGlu = O=C(O)[C@H](CCC(=O)[*:2])N[*:1]

How the values were obtained:
[1] = molecular target: T1, human calcitonin receptor on BHK570/CRE-luc cells (human, UniProt P30988 25-474); assay: cell-based or functional assay
T1 sequence (looked up): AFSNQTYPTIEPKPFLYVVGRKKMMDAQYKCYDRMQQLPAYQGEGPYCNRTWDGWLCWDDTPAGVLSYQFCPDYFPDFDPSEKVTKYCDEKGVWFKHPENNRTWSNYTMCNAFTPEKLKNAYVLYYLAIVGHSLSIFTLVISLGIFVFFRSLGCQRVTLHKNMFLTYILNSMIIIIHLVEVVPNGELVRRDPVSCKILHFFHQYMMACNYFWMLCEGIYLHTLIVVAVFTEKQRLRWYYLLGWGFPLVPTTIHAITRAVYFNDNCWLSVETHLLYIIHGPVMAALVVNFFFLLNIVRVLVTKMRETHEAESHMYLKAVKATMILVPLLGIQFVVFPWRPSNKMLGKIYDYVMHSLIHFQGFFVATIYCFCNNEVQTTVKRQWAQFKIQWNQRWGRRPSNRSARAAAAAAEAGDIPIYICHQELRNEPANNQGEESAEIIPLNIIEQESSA

[2] = molecular target: T2, human amylin 3(a) receptor (human calcitonin receptor co-expressed with RAMP-3) on BHK570/CRE-luc cells (human, UniProt P30988 25-474; O60896 24-148); assay: cell-based or functional assay
T2 sequence (looked up) 1: T1 sequence (looked up)
T2 sequence (looked up) 2: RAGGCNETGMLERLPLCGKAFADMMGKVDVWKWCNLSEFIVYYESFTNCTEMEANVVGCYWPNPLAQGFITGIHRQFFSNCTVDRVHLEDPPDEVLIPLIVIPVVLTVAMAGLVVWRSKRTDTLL

hCTR funct. EC50 (pM), tested with HSA [1]: 78 pM
hAmylin-R funct. EC50 (pM), tested with HSA [2]: 168 pM
B1: [N-terminal(C20 diacid-gGlu), des1, 30S, 31G, 33L]mimylin (peptide)
peptide: {C20 diacid-γGlu}-ASELSTAALGRLSAELHELATLPRTETGSGSL-NH2
SMILES: CC(C)C[C@H](NC(=O)[C@H](CO)NC(=O)CNC(=O)[C@H](CO)NC(=O)CNC(=O)[C@@H](NC(=O)[C@H](CCC(=O)O)NC(=O)[C@@H](NC(=O)[C@H](CCCNC(=N)N)NC(=O)[C@@H]1CCCN1C(=O)[C@H](CC(C)C)NC(=O)[C@@H](NC(=O)[C@H](C)NC(=O)[C@H](CC(C)C)NC(=O)[C@H](CCC(=O)O)NC(=O)[C@H](Cc1c[nH]cn1)NC(=O)[C@H](CC(C)C)NC(=O)[C@H](CCC(=O)O)NC(=O)[C@H](C)NC(=O)[C@H](CO)NC(=O)[C@H](CC(C)C)NC(=O)[C@H](CCCNC(=N)N)NC(=O)CNC(=O)[C@H](CC(C)C)NC(=O)[C@H](C)NC(=O)[C@H](C)NC(=O)[C@@H](NC(=O)[C@H](CO)NC(=O)[C@H](CC(C)C)NC(=O)[C@H](CCC(=O)O)NC(=O)[C@H](CO)NC(=O)[C@H](C)NC(=O)CC[C@H](NC(=O)CCCCCCCCCCCCCCCCCCC(=O)O)C(=O)O)[C@@H](C)O)[C@@H](C)O)[C@@H](C)O)[C@@H](C)O)C(N)=O

hCTR funct. EC50 (pM), tested with HSA [1]: 154 pM
hAmylin-R funct. EC50 (pM), tested with HSA [2]: 328 pM
B2: [N-terminal(C20 diacid-gGlu), des1, 30S, 31G, 33S]mimylin (peptide)
peptide: {C20 diacid-γGlu}-ASELSTAALGRLSAELHELATLPRTETGSGSS-NH2
SMILES: CC(C)C[C@H](NC(=O)[C@H](C)NC(=O)[C@H](C)NC(=O)[C@@H](NC(=O)[C@H](CO)NC(=O)[C@H](CC(C)C)NC(=O)[C@H](CCC(=O)O)NC(=O)[C@H](CO)NC(=O)[C@H](C)NC(=O)CC[C@H](NC(=O)CCCCCCCCCCCCCCCCCCC(=O)O)C(=O)O)[C@@H](C)O)C(=O)NCC(=O)N[C@@H](CCCNC(=N)N)C(=O)N[C@@H](CC(C)C)C(=O)N[C@@H](CO)C(=O)N[C@@H](C)C(=O)N[C@@H](CCC(=O)O)C(=O)N[C@@H](CC(C)C)C(=O)N[C@@H](Cc1c[nH]cn1)C(=O)N[C@@H](CCC(=O)O)C(=O)N[C@@H](CC(C)C)C(=O)N[C@@H](C)C(=O)N[C@H](C(=O)N[C@@H](CC(C)C)C(=O)N1CCC[C@H]1C(=O)N[C@@H](CCCNC(=N)N)C(=O)N[C@H](C(=O)N[C@@H](CCC(=O)O)C(=O)N[C@H](C(=O)NCC(=O)N[C@@H](CO)C(=O)NCC(=O)N[C@@H](CO)C(=O)N[C@@H](CO)C(N)=O)[C@@H](C)O)[C@@H](C)O)[C@@H](C)O

hCTR funct. EC50 (pM), tested with HSA [1]: 73 pM
hAmylin-R funct. EC50 (pM), tested with HSA [2]: 94 pM
B3: [N-terminal(C20 diacid-gGlu), des1, 30S, 31G, 33F]mimylin (peptide)
peptide: {C20 diacid-γGlu}-ASELSTAALGRLSAELHELATLPRTETGSGSF-NH2
SMILES: CC(C)C[C@H](NC(=O)[C@H](C)NC(=O)[C@H](C)NC(=O)[C@@H](NC(=O)[C@H](CO)NC(=O)[C@H](CC(C)C)NC(=O)[C@H](CCC(=O)O)NC(=O)[C@H](CO)NC(=O)[C@H](C)NC(=O)CC[C@H](NC(=O)CCCCCCCCCCCCCCCCCCC(=O)O)C(=O)O)[C@@H](C)O)C(=O)NCC(=O)N[C@@H](CCCNC(=N)N)C(=O)N[C@@H](CC(C)C)C(=O)N[C@@H](CO)C(=O)N[C@@H](C)C(=O)N[C@@H](CCC(=O)O)C(=O)N[C@@H](CC(C)C)C(=O)N[C@@H](Cc1c[nH]cn1)C(=O)N[C@@H](CCC(=O)O)C(=O)N[C@@H](CC(C)C)C(=O)N[C@@H](C)C(=O)N[C@H](C(=O)N[C@@H](CC(C)C)C(=O)N1CCC[C@H]1C(=O)N[C@@H](CCCNC(=N)N)C(=O)N[C@H](C(=O)N[C@@H](CCC(=O)O)C(=O)N[C@H](C(=O)NCC(=O)N[C@@H](CO)C(=O)NCC(=O)N[C@@H](CO)C(=O)N[C@@H](Cc1ccccc1)C(N)=O)[C@@H](C)O)[C@@H](C)O)[C@@H](C)O

hCTR funct. EC50 (pM), tested with HSA [1]: 239 pM
hAmylin-R funct. EC50 (pM), tested with HSA [2]: 435 pM
B4: [N-terminal(C20 diacid-gGlu), des1, 30S, 31G, 33G]mimylin (peptide)
peptide: {C20 diacid-γGlu}-ASELSTAALGRLSAELHELATLPRTETGSGSG-NH2
SMILES: CC(C)C[C@H](NC(=O)[C@H](C)NC(=O)[C@H](C)NC(=O)[C@@H](NC(=O)[C@H](CO)NC(=O)[C@H](CC(C)C)NC(=O)[C@H](CCC(=O)O)NC(=O)[C@H](CO)NC(=O)[C@H](C)NC(=O)CC[C@H](NC(=O)CCCCCCCCCCCCCCCCCCC(=O)O)C(=O)O)[C@@H](C)O)C(=O)NCC(=O)N[C@@H](CCCNC(=N)N)C(=O)N[C@@H](CC(C)C)C(=O)N[C@@H](CO)C(=O)N[C@@H](C)C(=O)N[C@@H](CCC(=O)O)C(=O)N[C@@H](CC(C)C)C(=O)N[C@@H](Cc1c[nH]cn1)C(=O)N[C@@H](CCC(=O)O)C(=O)N[C@@H](CC(C)C)C(=O)N[C@@H](C)C(=O)N[C@H](C(=O)N[C@@H](CC(C)C)C(=O)N1CCC[C@H]1C(=O)N[C@@H](CCCNC(=N)N)C(=O)N[C@H](C(=O)N[C@@H](CCC(=O)O)C(=O)N[C@H](C(=O)NCC(=O)N[C@@H](CO)C(=O)NCC(=O)N[C@@H](CO)C(=O)NCC(N)=O)[C@@H](C)O)[C@@H](C)O)[C@@H](C)O

hCTR funct. EC50 (pM), tested with HSA [1]: 72 pM
hAmylin-R funct. EC50 (pM), tested with HSA [2]: 125 pM
B5: [N-terminal(C20 diacid-gGlu), des1, 30S, 31G, 33H]mimylin (peptide)
peptide: {C20 diacid-γGlu}-ASELSTAALGRLSAELHELATLPRTETGSGSH-NH2
SMILES: CC(C)C[C@H](NC(=O)[C@H](C)NC(=O)[C@H](C)NC(=O)[C@@H](NC(=O)[C@H](CO)NC(=O)[C@H](CC(C)C)NC(=O)[C@H](CCC(=O)O)NC(=O)[C@H](CO)NC(=O)[C@H](C)NC(=O)CC[C@H](NC(=O)CCCCCCCCCCCCCCCCCCC(=O)O)C(=O)O)[C@@H](C)O)C(=O)NCC(=O)N[C@@H](CCCNC(=N)N)C(=O)N[C@@H](CC(C)C)C(=O)N[C@@H](CO)C(=O)N[C@@H](C)C(=O)N[C@@H](CCC(=O)O)C(=O)N[C@@H](CC(C)C)C(=O)N[C@@H](Cc1c[nH]cn1)C(=O)N[C@@H](CCC(=O)O)C(=O)N[C@@H](CC(C)C)C(=O)N[C@@H](C)C(=O)N[C@H](C(=O)N[C@@H](CC(C)C)C(=O)N1CCC[C@H]1C(=O)N[C@@H](CCCNC(=N)N)C(=O)N[C@H](C(=O)N[C@@H](CCC(=O)O)C(=O)N[C@H](C(=O)NCC(=O)N[C@@H](CO)C(=O)NCC(=O)N[C@@H](CO)C(=O)N[C@@H](Cc1c[nH]cn1)C(N)=O)[C@@H](C)O)[C@@H](C)O)[C@@H](C)O

hCTR funct. EC50 (pM), tested with HSA [1]: 102 pM
hAmylin-R funct. EC50 (pM), tested with HSA [2]: 265 pM
B6: [N-terminal(C20 diacid-gGlu), des1, 30S, 31G, 33A]mimylin (peptide)
peptide: {C20 diacid-γGlu}-ASELSTAALGRLSAELHELATLPRTETGSGSA-NH2
SMILES: CC(C)C[C@H](NC(=O)[C@H](C)NC(=O)[C@H](C)NC(=O)[C@@H](NC(=O)[C@H](CO)NC(=O)[C@H](CC(C)C)NC(=O)[C@H](CCC(=O)O)NC(=O)[C@H](CO)NC(=O)[C@H](C)NC(=O)CC[C@H](NC(=O)CCCCCCCCCCCCCCCCCCC(=O)O)C(=O)O)[C@@H](C)O)C(=O)NCC(=O)N[C@@H](CCCNC(=N)N)C(=O)N[C@@H](CC(C)C)C(=O)N[C@@H](CO)C(=O)N[C@@H](C)C(=O)N[C@@H](CCC(=O)O)C(=O)N[C@@H](CC(C)C)C(=O)N[C@@H](Cc1c[nH]cn1)C(=O)N[C@@H](CCC(=O)O)C(=O)N[C@@H](CC(C)C)C(=O)N[C@@H](C)C(=O)N[C@H](C(=O)N[C@@H](CC(C)C)C(=O)N1CCC[C@H]1C(=O)N[C@@H](CCCNC(=N)N)C(=O)N[C@H](C(=O)N[C@@H](CCC(=O)O)C(=O)N[C@H](C(=O)NCC(=O)N[C@@H](CO)C(=O)NCC(=O)N[C@@H](CO)C(=O)N[C@@H](C)C(N)=O)[C@@H](C)O)[C@@H](C)O)[C@@H](C)O
